Where two headings read alike, the source gives them in different places.
Tests used:
in vivo = conditions: female, SCID, mouse, iv, total radioactivity, Biodistribution, mean ± sd, n = 4; for tissue uptake at 4 h: 4 h pi; for tissue uptake at 1 h: 1 h pi; for tissue uptake at 24 h: 24 h pi
Experimental: (§1) Female SCID mice (15 ± 3 g, six weeks of age animals at the day of arrival, NCSR “Demokritos” Animal House Facility) were acclimatized under aseptic conditions and treated with estrogens (receiving 4 mg/L β-estradiol, Sigma-Aldrich, St. Louis, MO, USA, in their drinking water,) for a week prior to inoculation. A ≈ 150 μL bolus containing a suspension of ≈1.2 × 10^7 freshly harvested human T-47D cells suspended in Matrigel (Corning Life Sciences, Inc., Bedford, MA, USA) was subcutaneously injected in their flanks. The animals were kept under estrogen treatment for additional 8 weeks till they developed well-palpable tumors (100–200 mg) at the inoculation sites.
(§2) On the day of the experiment animals were allowed access to water, but not to food. Animals in 3 groups of 4 received a 100 μL bolus of [^67Ga]NeoBOMB1 (37 kBq, corresponding to 10 pmol, or 200 pmol total peptide or 40 nmol for in vivo GRPR-blockade for each of the 3 groups) was injected in the tail vein; animals were euthanized at 4 h pi and dissected. Samples of blood, tumors and organs of interest were collected, weighed and measured for radioactivity in the gamma counter. Intestines and stomach were not emptied of their contents. In another experimental setting, mice in 3 groups of 4 received a 100 μL bolus of [^67Ga]NeoBOMB1 (37 kBq, 200 pmol); they were euthanized at 1 h, 4 h and 24 h pi and biodistribution was conducted as described above. Statistical analysis was conducted using the unpaired two-tailed Student’s t-test; values p < 0.05 were considered statistically significant.

[1] = system: T-47D Xenograft-Bearing SCID Mice; experiment: in vivo; conditions: T-47D tumor, 4 h pi, mean ± sd, n = 4
Experimental: as §1, §2

[2] = male Swiss albino mice, iv 3 nmol total peptide, radio-HPLC
Experimental: [^67Ga]NeoBOMB1 was injected as a 100 μL bolus (11–22 MBq, 3 nmol total peptide) in the tail vein of male Swiss albino mice (30 ± 5 g, NCSR “Demokritos” Animal House Facility). Mice were anesthetized, and blood (0.5–1 mL) was collected from the heart at 5 and 30 min post injection (pi). Animals were euthanized and blood directly drawn from the heart was transferred in a pre-chilled EDTA-containing Eppendorf tube on ice. Blood samples were centrifuged for 10 min at 2000× g at 4 °C and plasma was collected. After addition of an equal volume of ice-cold MeCN the mixture was centrifuged for 10 min at 15,000× g at 4 °C. The supernatant was concentrated under a N2-flux at 40 °C to 0.05–0.1 mL, diluted with saline (0.4 mL), filtered through a 0.22 μm Millex GV filter (Millipore, Milford, MA, USA) and analyzed by RP-HPLC. The Symmetry Shield RP18 (5 μm, 3.9 mm × 20 mm) column was eluted at a flow rate of 1.0 mL/min with the following linear gradient: 100% A and 0% B to 50% A and 50% B in 50 min; (A = 0.1% aqueous TFA (v/v) and B = MeCN). The tR of the intact radiopeptide was determined by coinjection with the [^67Ga]NeoBOMB1 reference in the HPLC.

[3] = lungs, 200 pmol, 200 pmol peptide (0.185 MBq/nmol) iv, Table 2 time study
[4] = muscle, 200 pmol, 200 pmol peptide (0.185 MBq/nmol) iv, Table 2 time study
[5] = pancreas, 200 pmol, 200 pmol peptide (0.185 MBq/nmol) iv, Table 2 time study
[6] = spleen, 200 pmol, 200 pmol peptide (0.185 MBq/nmol) iv, Table 2 time study
[7] = stomach (not emptied), 200 pmol, Stomach, 200 pmol peptide (0.185 MBq/nmol) iv, Table 2 time study

In the case of `CC(C)CC(CC(C)C)NC(=O)[C@H](Cc1cnc[nH]1)NC(=O)CNC(=O)[C@@H](NC(=O)[C@H](C)NC(=O)[C@H](Cc1c[nH]c2ccccc12)NC(=O)[C@H](CCC(N)=O)NC(=O)[C@@H](Cc1ccccc1)NC(=O)COCC(=O)Nc1ccc(CNC(=O)CN2CCN(CC(=O)O)CCN(CC(=O)O)CCN(CC(=O)O)CC2)cc1)C(C)C` [[^67Ga]NeoBOMB1, metal not drawn], the tissue uptake at 4 h (in vivo; liver, 40 nmol, 40 nmol NeoBOMB1, in vivo GRPR-blockade) is reported as 9.67 ± 0.75 %ID/g, the tissue uptake at 4 h (in vivo; lungs, 10 pmol, 10 pmol peptide (3.7 MBq/nmol) iv) is reported as 0.5 ± 0.06 %ID/g and the tissue uptake at 1 h (in vivo; [3]) is reported as 2.88 ± 0.2 %ID/g. It also gave a tissue uptake at 4 h (in vivo; lungs, 200 pmol, 200 pmol peptide (0.185 MBq/nmol) iv, Table 1 dose study) of 0.43 ± 0.06 %ID/g, a tissue uptake at 4 h (in vivo; [3]) of 0.47 ± 0.04 %ID/g and a tissue uptake at 24 h (in vivo; [3]) of 0.15 ± 0.02 %ID/g. For the same molecule, the tissue uptake at 4 h (in vivo; lungs, 40 nmol, 40 nmol NeoBOMB1, in vivo GRPR-blockade) was 0.42 ± 0.02 %ID/g, the tissue uptake at 4 h (in vivo; muscle, 10 pmol, 10 pmol peptide (3.7 MBq/nmol) iv) was 0.1 ± 0.03 %ID/g and the tissue uptake at 1 h (in vivo; [4]) was 0.58 ± 0.11 %ID/g. The tissue uptake at 4 h (in vivo; muscle, 200 pmol, 200 pmol peptide (0.185 MBq/nmol) iv, Table 1 dose study) was 0.12 ± 0.01 %ID/g, the tissue uptake at 4 h (in vivo; [4]) was 0.17 %ID/g and the tissue uptake at 24 h (in vivo; [4]) was 0.13 ± 0.01 %ID/g. It also gave a tissue uptake at 4 h (in vivo; muscle, 40 nmol, 40 nmol NeoBOMB1, in vivo GRPR-blockade) of 0.16 ± 0.06 %ID/g, a tissue uptake at 4 h (in vivo; pancreas, 10 pmol, 10 pmol peptide (3.7 MBq/nmol) iv) of 206 ± 17.4 %ID/g and a tissue uptake at 1 h (in vivo; [5]) of 32.5 ± 0.78 %ID/g. For the same molecule, the tissue uptake at 4 h (in vivo; pancreas, 200 pmol, 200 pmol peptide (0.185 MBq/nmol) iv, Table 1 dose study) was 42.5 ± 1.31 %ID/g, the tissue uptake at 4 h (in vivo; [5]) was 36.9 ± 3.58 %ID/g and the tissue uptake at 24 h (in vivo; [5]) was 21.3 ± 2.77 %ID/g. For the same molecule, the tissue uptake at 4 h (in vivo; pancreas, 40 nmol, 40 nmol NeoBOMB1, in vivo GRPR-blockade) was 1.17 ± 0.11 %ID/g, the tissue uptake at 4 h (in vivo; spleen, 10 pmol, 10 pmol peptide (3.7 MBq/nmol) iv) was 1.02 ± 0.09 %ID/g and the tissue uptake at 1 h (in vivo; [6]) was 1.71 ± 0.5 %ID/g. For the same molecule, the tissue uptake at 4 h (in vivo; spleen, 200 pmol, 200 pmol peptide (0.185 MBq/nmol) iv, Table 1 dose study) was 0.7 ± 0.09 %ID/g, the tissue uptake at 4 h (in vivo; [6]) was 0.89 ± 0.12 %ID/g and the tissue uptake at 24 h (in vivo; [6]) was 0.46 ± 0.08 %ID/g. It also gave a tissue uptake at 4 h (in vivo; spleen, 40 nmol, 40 nmol NeoBOMB1, in vivo GRPR-blockade) of 0.79 ± 0.11 %ID/g, a tissue uptake at 1 h (in vivo; [7]) of 5.89 ± 1.02 %ID/g and a tissue uptake at 4 h (in vivo; [7]) of 2.66 ± 0.16 %ID/g. It also gave a tissue uptake at 24 h (in vivo; [7]) of 2.07 ± 0.43 %ID/g, a tissue uptake at 4 h (in vivo; stomach, 10 pmol, Stomach (not emptied), 10 pmol peptide (3.7 MBq/nmol) iv) of 4.36 ± 0.56 %ID/g and a tissue uptake at 4 h (in vivo; stomach, 200 pmol, Stomach (not emptied), 200 pmol peptide (0.185 MBq/nmol) iv, Table 1 dose study) of 2.38 ± 0.13 %ID/g. It also gave a tissue uptake at 4 h (in vivo; stomach, 40 nmol, Stomach (not emptied), 40 nmol NeoBOMB1, in vivo GRPR-blockade) of 0.42 ± 0.1 %ID/g, a tissue uptake at 4 h (in vivo; whole blood, 10 pmol, Blood, 10 pmol peptide (3.7 MBq/nmol) iv) of 0.53 ± 0.04 %ID/g and a tissue uptake at 4 h (in vivo; whole blood, 200 pmol, Blood, 200 pmol peptide (0.185 MBq/nmol) iv, Table 1 dose study) of 0.42 ± 0.06 %ID/g. The tissue uptake at 4 h (in vivo; whole blood, 40 nmol, Blood, 40 nmol NeoBOMB1, in vivo GRPR-blockade) was 0.46 ± 0.03 %ID/g, the “Biodistribution, Tumor” value ([1]; 200 pmol peptide (0.185 MBq/nmol) iv, Table 2 time study) was 8.68 ± 2.9 % ID/g and the “Biodistribution, Tumor” value ([1]; 40 nmol NeoBOMB1, in vivo GRPR-blockade, iv) was 0.64 ± 0.10 % ID/g. For the same molecule, the “Intact radioligand in mouse circulation” value ([2]; blood collected 5 min pi) was 98% and the “Intact radioligand in mouse circulation” value ([2]; blood collected 30 min pi) was 90%.

From publication PMC6150197, “NeoBOMB1, a GRPR-Antagonist for Breast Cancer Theragnostics: First Results of a Preclinical Study with [^67Ga]NeoBOMB1 in T-47D Cells and Tumor-Bearing Mice” (Molecules : A Journal of Synthetic Chemistry and Natural …, 2017)
